Measured values: PMC9133542, “Development of Novel CD47-Specific ADCs Possessing High Potency Against Non-Small Cell Lung Cancer in vitro and in vivo” (Frontiers in Oncology, 2022)

How the values were obtained:
[1] = biological target: CD47 on the cell membrane of human lung cancer cell lines A549, SPC-A-1 and 95D (Homo sapiens, UniProt Q08722); experiment: cell-based or functional assay
[2] = biological target: T1, CD47/ECD (Gln 19 - Pro 139, His Tag, ACROBiosystems) (Homo sapiens, UniProt Q08722-3); experiment: ELISA; CD47/ECD coated (0.2 ug per well, PBS pH 7.4, 16 h at 4°C), blocked with 2% BSA in PBST; IgG titrated at 11 two-fold dilutions in PBST with 0.5% BSA, 1 h; detected with HRP/anti-human IgG conjugate; EC50 by ED50 Plus v1.0; n = 3; details: both partners purified
T1 construct: also called CD47 antigen; CD47/ECD antigen; source: bought: ACROBiosystems (expressed from human 293 cells, HEK293)
T1 sequence (Q08722 19-139): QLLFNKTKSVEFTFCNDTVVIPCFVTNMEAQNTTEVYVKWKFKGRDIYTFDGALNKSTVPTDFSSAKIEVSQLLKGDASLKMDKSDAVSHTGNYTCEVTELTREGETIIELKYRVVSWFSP

Chain of CD47 on the cell membrane of human lung cancer cell lines A549, SPC-A-1 and 95D (Q08722 19-323): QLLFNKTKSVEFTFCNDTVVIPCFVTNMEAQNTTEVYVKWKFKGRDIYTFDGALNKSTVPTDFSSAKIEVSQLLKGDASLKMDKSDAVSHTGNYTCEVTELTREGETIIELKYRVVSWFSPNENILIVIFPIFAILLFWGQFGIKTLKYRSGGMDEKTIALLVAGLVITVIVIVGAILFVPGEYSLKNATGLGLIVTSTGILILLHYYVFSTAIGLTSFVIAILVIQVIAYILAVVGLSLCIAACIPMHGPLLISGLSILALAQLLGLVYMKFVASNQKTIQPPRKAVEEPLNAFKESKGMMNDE

Row | Binder | IC50 of cytotoxicity on 95D cells (relative cell viability, WST-1; 0.064-40 nM) [1] | EC50 [2]
1 | 7DC2-VCMMAE (7DC2 conjugated with maleimidocaproyl-valine-citrulline-monomethyl auristatin E) (antibody, V domains shown, as the heavy chain of m1 (mouse Fab part); human IgG1 Fc fragment; as the light chain of m1; Antibody-drug conjugate of m1; drug distribution 2, 4, 6 and 8 per antibody; also called 7DC-VCMMAE; source: 7DC2 from Expi293, reduced with TCEP, conjugated with VCMMAE, purified (Amicon-30 kDa); copies: 2 + 2) VH: QVQLQQSGPELVKPGASVKMSCKASGYTFTNYFMHWVKQKPGQGLEWIGYINPYNDGTKYNEKFKGKATLTSDKSSSTAYMELSSLTSEDSAVYYCTKGGRYSMDYWGQGTTLTVSS VL: DVVMTQTPLSLPVRLGDEVSISCRSSQTIVFTNGNTYLEWYLQKPGQSPKLLIYKVSNRFSGVPDRFSGSGSGTDFTLTISRVEAEDLGIYYCFQGSHVPYTFGGGTKLELK | ~40 nM | 0.15 nM
2 | 7DC2 monoclonal antibody (chimeric anti-human CD47, mouse Fab plus human IgG1 Fc) (antibody, V domains shown, human IgG1 Fc fragment; mouse light chain of 7DC2; Chimeric IgG1; also called 7DC2 mAb; 7CD2; source: Expi293, transfected with light and heavy chain plasmids, purified; copies: 2 + 2) VH: QVQLQQSGPELVKPGASVKMSCKASGYTFTNYFMHWVKQKPGQGLEWIGYINPYNDGTKYNEKFKGKATLTSDKSSSTAYMELSSLTSEDSAVYYCTKGGRYSMDYWGQGTTLTVSS VL: DVVMTQTPLSLPVRLGDEVSISCRSSQTIVFTNGNTYLEWYLQKPGQSPKLLIYKVSNRFSGVPDRFSGSGSGTDFTLTISRVEAEDLGIYYCFQGSHVPYTFGGGTKLELK | – | 0.15 nM
3 | 7DC4-VCMMAE (7DC4 conjugated with maleimidocaproyl-valine-citrulline-monomethyl auristatin E) (antibody, V domains shown, as the heavy chain of m2 (mouse Fab part); human IgG1 Fc fragment; as the light chain of m2; Antibody-drug conjugate of m2; drug distribution 2, 4, 6 and 8 per antibody; also called 7DC4-CVMMAE; 7DC4-MMAE; source: 7DC4 from Expi293, reduced with TCEP, conjugated with VCMMAE, purified (Amicon-30 kDa); copies: 2 + 2) VH: QVQLKQSGAELVQPGASVKLSCKASGYTFTNYYMYWLRQRPGQGLEWIGEINPSNGGTDFNEKFKSKATLTVDKSSSTAFMQLSSLTSDDSAVYYCARGGFTMDYWGQGTTVTVSS VL: DVVMTQTPLSLPVSLGDQASISCRSSQSLVHSNGNTYLHWYLQKPGQSPKLLIYKVSNRFSGVPDRFSGSGSGTDFTLKISRVEAEDLGVYFCSQSTHVPLTFGAGTKLELK | ~40 nM | 0.13 nM
4 | 7DC4 monoclonal antibody (chimeric anti-human CD47, mouse Fab plus human IgG1 Fc) (antibody, V domains shown, human IgG1 Fc fragment; mouse light chain of 7DC4; Chimeric IgG1; also called 7DC4 mAb; 7CD4; source: Expi293, transfected with light and heavy chain plasmids, purified; copies: 2 + 2) VH: QVQLKQSGAELVQPGASVKLSCKASGYTFTNYYMYWLRQRPGQGLEWIGEINPSNGGTDFNEKFKSKATLTVDKSSSTAFMQLSSLTSDDSAVYYCARGGFTMDYWGQGTTVTVSS VL: DVVMTQTPLSLPVSLGDQASISCRSSQSLVHSNGNTYLHWYLQKPGQSPKLLIYKVSNRFSGVPDRFSGSGSGTDFTLKISRVEAEDLGVYFCSQSTHVPLTFGAGTKLELK | – | 0.13 nM
